Test results from patent publication US20040076995A1, “Nurr1 transcription factor 1-box mutants having monomeric transcriptional activation activity” (priority 2001, published 2004).

B1: KLL(554-556)AAA: mouse Nurr1 I-box mutant, residues Lys554-Leu555-Leu556 substituted by three alanines (protein)
chain: MPCVQAQYGSSPQGASPASQSYSYHSSGEYSSDFLTPEFVKFSMDLTNTEITATTSLPSFSTFMDNYSTGYDVKPPCLYQMPLSGQQSSIKVEDIQMHNYQQHSHLPPQSEEMMPHSGSVYYKPSSPPTPSTPSFQVQHSPMWDDPGSLHNFHQNYVATTHMIEQRKTPVSRLSLFSFKQSPPGTPVSSCQMRFDGPLHVPMNPEPAGSHHVVDGQTFAVPNPIRKPASMGFPGLQIGHASQLLDTQVPSPPSRGSPSNEGLCAVCGDNAACQHYGVRTCEGCKGFFKRTVQKNAKYVCLANKNCPVDKRRRNRCQYCRFQKCLAVGMVKEVVRTDSLKGRRGRLPSKPKSPQDPSPPSPPVSLISALVRAHVDSNPAMTSLDYSRFQANPDYQMSGDDTQHIQQFYDLLTGSMEIIRGWAEKIPGFADLPKADQDLLFESAFLELFVLRLAYRSNPVEGKLIFCNGVVLHRLQCVRGFGEWIDSIVEFSSNLQNMNIDISAFSCIAALAMVTERHGLKEPKRVEELQNKIVNCLKDHVTFNNGGLNRPNYLSAAAGKLPELRTLCTQGLQRIFYLKLEDLVPPPAIIDKLFLDTLPF
B2: K558A: mouse Nurr1 I-box mutant, Lys558 substituted by alanine (protein)
chain: MPCVQAQYGSSPQGASPASQSYSYHSSGEYSSDFLTPEFVKFSMDLTNTEITATTSLPSFSTFMDNYSTGYDVKPPCLYQMPLSGQQSSIKVEDIQMHNYQQHSHLPPQSEEMMPHSGSVYYKPSSPPTPSTPSFQVQHSPMWDDPGSLHNFHQNYVATTHMIEQRKTPVSRLSLFSFKQSPPGTPVSSCQMRFDGPLHVPMNPEPAGSHHVVDGQTFAVPNPIRKPASMGFPGLQIGHASQLLDTQVPSPPSRGSPSNEGLCAVCGDNAACQHYGVRTCEGCKGFFKRTVQKNAKYVCLANKNCPVDKRRRNRCQYCRFQKCLAVGMVKEVVRTDSLKGRRGRLPSKPKSPQDPSPPSPPVSLISALVRAHVDSNPAMTSLDYSRFQANPDYQMSGDDTQHIQQFYDLLTGSMEIIRGWAEKIPGFADLPKADQDLLFESAFLELFVLRLAYRSNPVEGKLIFCNGVVLHRLQCVRGFGEWIDSIVEFSSNLQNMNIDISAFSCIAALAMVTERHGLKEPKRVEELQNKIVNCLKDHVTFNNGGLNRPNYLSKLLGALPELRTLCTQGLQRIFYLKLEDLVPPPAIIDKLFLDTLPF
B3: L562A: mouse Nurr1 I-box mutant, Leu562 substituted by alanine (protein)
chain: MPCVQAQYGSSPQGASPASQSYSYHSSGEYSSDFLTPEFVKFSMDLTNTEITATTSLPSFSTFMDNYSTGYDVKPPCLYQMPLSGQQSSIKVEDIQMHNYQQHSHLPPQSEEMMPHSGSVYYKPSSPPTPSTPSFQVQHSPMWDDPGSLHNFHQNYVATTHMIEQRKTPVSRLSLFSFKQSPPGTPVSSCQMRFDGPLHVPMNPEPAGSHHVVDGQTFAVPNPIRKPASMGFPGLQIGHASQLLDTQVPSPPSRGSPSNEGLCAVCGDNAACQHYGVRTCEGCKGFFKRTVQKNAKYVCLANKNCPVDKRRRNRCQYCRFQKCLAVGMVKEVVRTDSLKGRRGRLPSKPKSPQDPSPPSPPVSLISALVRAHVDSNPAMTSLDYSRFQANPDYQMSGDDTQHIQQFYDLLTGSMEIIRGWAEKIPGFADLPKADQDLLFESAFLELFVLRLAYRSNPVEGKLIFCNGVVLHRLQCVRGFGEWIDSIVEFSSNLQNMNIDISAFSCIAALAMVTERHGLKEPKRVEELQNKIVNCLKDHVTFNNGGLNRPNYLSKLLGKLPEARTLCTQGLQRIFYLKLEDLVPPPAIIDKLFLDTLPF
B4: GKL(557-559)AAA: mouse Nurr1 I-box mutant, residues 557-559 (GKL) substituted by three alanines (protein)
chain: MPCVQAQYGSSPQGASPASQSYSYHSSGEYSSDFLTPEFVKFSMDLTNTEITATTSLPSFSTFMDNYSTGYDVKPPCLYQMPLSGQQSSIKVEDIQMHNYQQHSHLPPQSEEMMPHSGSVYYKPSSPPTPSTPSFQVQHSPMWDDPGSLHNFHQNYVATTHMIEQRKTPVSRLSLFSFKQSPPGTPVSSCQMRFDGPLHVPMNPEPAGSHHVVDGQTFAVPNPIRKPASMGFPGLQIGHASQLLDTQVPSPPSRGSPSNEGLCAVCGDNAACQHYGVRTCEGCKGFFKRTVQKNAKYVCLANKNCPVDKRRRNRCQYCRFQKCLAVGMVKEVVRTDSLKGRRGRLPSKPKSPQDPSPPSPPVSLISALVRAHVDSNPAMTSLDYSRFQANPDYQMSGDDTQHIQQFYDLLTGSMEIIRGWAEKIPGFADLPKADQDLLFESAFLELFVLRLAYRSNPVEGKLIFCNGVVLHRLQCVRGFGEWIDSIVEFSSNLQNMNIDISAFSCIAALAMVTERHGLKEPKRVEELQNKIVNCLKDHVTFNNGGLNRPNYLSKLLAAAPELRTLCTQGLQRIFYLKLEDLVPPPAIIDKLFLDTLPF
B5: PEL(560-562.)AAA: mouse Nurr1 I-box mutant, residues 560-562 (PEL) substituted by three alanines (protein)
chain: MPCVQAQYGSSPQGASPASQSYSYHSSGEYSSDFLTPEFVKFSMDLTNTEITATTSLPSFSTFMDNYSTGYDVKPPCLYQMPLSGQQSSIKVEDIQMHNYQQHSHLPPQSEEMMPHSGSVYYKPSSPPTPSTPSFQVQHSPMWDDPGSLHNFHQNYVATTHMIEQRKTPVSRLSLFSFKQSPPGTPVSSCQMRFDGPLHVPMNPEPAGSHHVVDGQTFAVPNPIRKPASMGFPGLQIGHASQLLDTQVPSPPSRGSPSNEGLCAVCGDNAACQHYGVRTCEGCKGFFKRTVQKNAKYVCLANKNCPVDKRRRNRCQYCRFQKCLAVGMVKEVVRTDSLKGRRGRLPSKPKSPQDPSPPSPPVSLISALVRAHVDSNPAMTSLDYSRFQANPDYQMSGDDTQHIQQFYDLLTGSMEIIRGWAEKIPGFADLPKADQDLLFESAFLELFVLRLAYRSNPVEGKLIFCNGVVLHRLQCVRGFGEWIDSIVEFSSNLQNMNIDISAFSCIAALAMVTERHGLKEPKRVEELQNKIVNCLKDHVTFNNGGLNRPNYLSKLLGKLAAARTLCTQGLQRIFYLKLEDLVPPPAIIDKLFLDTLPF
B6: E561A: mouse Nurr1 I-box mutant, Glu561 substituted by alanine (protein)
chain: MPCVQAQYGSSPQGASPASQSYSYHSSGEYSSDFLTPEFVKFSMDLTNTEITATTSLPSFSTFMDNYSTGYDVKPPCLYQMPLSGQQSSIKVEDIQMHNYQQHSHLPPQSEEMMPHSGSVYYKPSSPPTPSTPSFQVQHSPMWDDPGSLHNFHQNYVATTHMIEQRKTPVSRLSLFSFKQSPPGTPVSSCQMRFDGPLHVPMNPEPAGSHHVVDGQTFAVPNPIRKPASMGFPGLQIGHASQLLDTQVPSPPSRGSPSNEGLCAVCGDNAACQHYGVRTCEGCKGFFKRTVQKNAKYVCLANKNCPVDKRRRNRCQYCRFQKCLAVGMVKEVVRTDSLKGRRGRLPSKPKSPQDPSPPSPPVSLISALVRAHVDSNPAMTSLDYSRFQANPDYQMSGDDTQHIQQFYDLLTGSMEIIRGWAEKIPGFADLPKADQDLLFESAFLELFVLRLAYRSNPVEGKLIFCNGVVLHRLQCVRGFGEWIDSIVEFSSNLQNMNIDISAFSCIAALAMVTERHGLKEPKRVEELQNKIVNCLKDHVTFNNGGLNRPNYLSKLLGKLPALRTLCTQGLQRIFYLKLEDLVPPPAIIDKLFLDTLPF

Key:
Nurr1-RXR heterodimer = test: Nurr1-RXR heterodimer-mediated transactivation, βRE luciferase reporter in JEG3 cells; assay type: cell-based, human; details: βRE-tk luciferase reporter, RXR ligand SR11237 1 μM, effect of the mutation vs wild-type Nurr1
Description: The wild-type and mutated Nurr1 derivatives were transfected in JEG3 cells. The ability to transactivate was assessed using a luciferase reporter gene driven by three copies of the hRARβ2 promoter RARE (βRE) upstream of a thymidine kinase promoter.
The influence of the I-box mutations on Nurr1 transcriptional activity and on the ability to interact with RXR was examined as described by Perlmann and Jansson 1995, Zetterström et al. 1996, and Castro et al. 1999. Nurr1-RXR heterodimer-mediated transactivation was studied in human chorion carcinoma JEG3 cells. The cells were maintained in minimum essential medium supplemented with 10% fetal calf serum. Transfections were performed in quadruplicates in 24-well plates using the calcium phosphate precipitation method. The cells were plated 24 h prior to the transfection. Each well was transfected with 100 ng of the expression vector for the Nurr1 variants, 100 ng of a reporter plasmid, and 200 ng of βgalactoside plasmid that was used as an internal control for transfection efficiency. The luciferase reporter used was driven by three copies of the retinoid acid response element (RARE) of the human retinoid acid receptorβ2 (hRARβ2) gene promoter (βRE) upstream of the thymidine kinase promoter. 6-8 hours after transfection, the cells received fresh medium supplemented with 10% charcoal-stripped fetal calf,serum and RXR ligand (SR11237;1 μM). The cells were harvested 24 hours late and lysed. The cells extracts were assayed for luciferase and βgalactosidase activity. The ability of the Nurr1 mutants to interact with RXR was examined using the mammalian two-hybrid assay. The ligand-binding domains (amino acids 353-598; LBD) of both wild-type and mutated Nurr1 variants were cloned in frame with the yeast Gal4 DNA-binding domain (amino acids 1-147) in the pCMX-Gal4 expression vector (Perlmann and Jansson 1995). JEG3 cells were cotransfected with pCMX-Gal4-Nurr1-LBD derivatives and pCMX-VP16-RXR containing the herpes simplex VP16 trans-activation domain followed by the complete coding sequence of human RXRα. A reporter gene with four copies of the Gal4-binding sites was used.

[1] = test system: NGFI-B response element (NBRE) reporter; test: Monomeric reporter gene activation, NBRE reporter in 293 cells (full-length receptor); assay type: cell-based, human; details: three copies of NBRE reporter, effect of the mutation vs wild-type Nurr1
Description: The monomeric activity was examined in 293 cells. The full-length receptor derivatives were studied using a reporter gene regulated by three copies of the NGFI-B binding site (NBRE; FIG. A).
The ability of the mutants to activate reporter gene expression as monomers were studied in human embryonic kidney 293 cells. The cells were maintained in Dulbecco's modified Eagles medium with 10% fetal calf serum. Transfections were carried out as with JEG3 cells except that a reporter regulated by three copies of the NGFI-B (nerve growth factor inducible-B)response element (Wilson et al., 1991) (NBREs) was used. The transcriptional activities of the mutated ligand-binding domains were assessed as fusions to the Gal4 DNA-binding domain and a reporter gene with four copies of the Gal4-binding sites was used. All the transfection experiments were performed in quadruplicate dishes and each experiment has been repeated at least twice with essentially identical results. The results of a representative experiment are shown.

Molecule	ability of Nurr1 to promote RXR-mediated transactivation (Nurr1-RXR heterodimer)	ability to activate reporter gene expression as monomers (monomeric activity) [1]
B1	abolished	intact
B2	only a modest effect	
B3	reduced	
B4	abolished	intact
B5	abolished	intact
B6	no effect	
